Data from patent US9579358B2, “Compositions for binding to amyloid proteins” (LANCASTER UNIVERSITY BUSINESS ENTERPRISES LIMITED, priority 2011, dated 2017).
Non-standard residues stand in square brackets, D forms with d. No end group written: not given here.

Tests used:
[1] = Nanoparticle Tracking Analysis (NTA); format: physicochemical
From the text: The particles were investigated by Nanoparticle Tracking Analysis (NTA) which is a method for visualizing and analyzing particles in liquids that can be used to determine the size of individual particles by tracking their rate of Brownian motion.

Aβ42 [2] = biological target: T1, Aβ42 (Homo sapiens, UniProt P05067); assay: Thioflavin T (ThT) assay for Aβ fibrils; format: biochemical; details: for % of control: Aβ alone = 100
T1 construct: Recombinant Aβ42, Ultrapure, was purchased from rPeptide, Bogart, Ga., USA; purchased rPeptide, Bogart, Ga., USA
T1 sequence (P05067 672-713 limits assumed): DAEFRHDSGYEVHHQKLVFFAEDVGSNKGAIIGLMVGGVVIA
Description: This method was the same as that published previously. Briefly, 60 μl samples of solutions containing Aβ42 (25 μM), ThT (15 μM) and between 0 and 125 μM RI-OR2 or RI-OR2-TAT, in 10 mM phosphate buffered saline (PBS), pH 7.4, were incubated in sealed, black, clear-bottomed 384-well plates (Corning). ThT fluorescence was monitored every 10 mins (λex=442 nm, λem=483 nm) for 48 h at 30° C. in a Biotek Synergy 2 plate reader.

Aβ42 [3] = biological target: T1, Aβ42; assay: Sandwich immunoassay (6E10) for Aβ oligomers; format: biochemical; details: Aβ1-42 12.5 μM
Aβ42 fibrils = biological target: T2, Aβ42 fibrils (Homo sapiens, UniProt P05067); assay: Surface plasmon resonance binding to immobilized Aβ42 fibrils; details: read-out: Kd, binding to Aβ fibrils
T2 construct: purchased rPeptide, Bogart, Ga., USA
T2 sequence (P05067 672-713 limits assumed): as above
From the text: SPR (Surface Plasmon Resonance) is a technique that can be used to measure the affinity of a substance for a substrate. The substrate (in this case Aβ fibrils) is bound to a solid surface and excited using a laser light source. The compound to be tested (e.g. PINPs) is allowed to flow over the bound substrate in suspension/solution and the emission spectra of the substrate will change if the compound binds. A second solution, without the test compound, can then added to elute any bound compound and the emission spectra may be observed to note loss of bound compound from the substrate. For a specific example regarding peptide binding to Aβ see reference (30).
In the examples presented here, The substance is introduced at a flow rate of 30 uL/min for 5 minute over the immobilized substrate. There is a spike in the signal which is due to the introduction of solvent without PINPs to show removal of the peptide bound to the Aβ fibrils. There are two plots related to addition of peptide at two different concentrations, 1 and 3 μM, plus a computer generated fitted curve for each one.
These experiments were conducted using a Sensi Q semi-automatic SPR machine (ICx Nomadics). This apparatus has two parallel flow cells; one was used to immobilize Aβ42 fibrils while the other was used as “reference” (empty surface). A COOH5 sensor chip (ICx Nomadics) was employed for this purpose and the peptide was immobilized by amine coupling chemistry. Briefly, after surface activation, the peptide preparation was diluted to 10 μM in acetate buffer (pH 4.0) and then injected for 5 min at a flow rate of 30 μL/min. Any remaining activated groups were blocked with ethanolamine (pH 8.0). The final immobilization level was ˜5,000 resonance units (1 RU=1 pg of protein/mm^2). The empty “reference” surface was prepared in parallel using the same immobilization procedure, but without addition of the peptide. Sensorgrams were then obtained via injection of three different concentrations of RI-OR2-TAT (1, 3 and 6 μM), as well as the vehicle (PBS with 0.005% Tween 20), over the immobilized ligand or control surface, in parallel.
These experiments were conducted using a Sensi Q semi-automatic SPR machine (ICx Nomadics). This apparatus has two parallel flow cells; one was used to immobilize Aβ(1-42) fibrils (see Aβ peptides) while the other was used as “reference” (empty surface). A COOH5 sensor chip (ICx Nomadics) was employed for this purpose and the peptide was immobilized by amine coupling chemistry. Briefly, after surface activation, the peptide preparations was diluted to 10 μM in acetate buffer (pH 4.0) and then injected for 5 min at a flow rate of 30 μL/min. Any remaining activated groups were blocked with ethanolamine (pH 8.0). The final immobilization level was 5000 resonance units (1 RU=1 pg of protein/mm^2). The empty “reference” surface was prepared in parallel using the same immobilization procedure, but without addition of the peptide. Sensorgrams were then obtained via injection of two different concentrations of RI-OR2 TAT/peptide liposome (1 and 3 μM), as well as the vehicle (PBS with 0.005% Tween 20), over the immobilized ligand or control surface, in parallel, at the same time.

Substance: PINPs: RI-OR2-TAT covalently attached to nanoliposomes (cholesterol:sphingomyelin [1:1] with 2.5% maleimide) via an additional cysteine (Ac-[dR]G[dF][dF][dV][dL][dK]G[dR][dR][dR][dR][dQ][dR][dR][dK][dK][dR]G[dY][dC]; not fully specified (residue 21); also: C-terminal D-Cys coupled via its thiol to maleimide lipid of nanoliposome)
- average diameter [1]: 130 nm
- reduction in aggregate formation (Aβ42 [2]; 1:50 molar ratio of PINPS:Aβ, 48 hours, Aβ1-42 25 μM): ~50%
- ThT signal by 48 hours (Aβ42 [2]; 1:500 molar ratio of PINPs (total lipids):Aβ): below that of Aβ1-42 alone
- RFU at 48 hours (Aβ42 [2]; 1 to 1 PINPS (total lipids):Aβ, Aβ1-42 25 μM): 13817 RFU
- % of control (Aβ42 [2]; 1 to 1 PINPS:Aβ, 48 hours): 7.1%
- RFU at 48 hours (Aβ42 [2]; 1 to 5 PINPS (total lipids):Aβ, Aβ1-42 25 μM): 14450 RFU
- % of control (Aβ42 [2]; 1 to 5 PINPS:Aβ, 48 hours): 7.4%
- RFU at 48 hours (Aβ42 [2]; 1 to 10 PINPS (total lipids):Aβ, Aβ1-42 25 μM): 15664 RFU
- % of control (Aβ42 [2]; 1 to 10 PINPS:Aβ, 48 hours): 8.1%
- RFU at 48 hours (Aβ42 [2]; 1 to 50 PINPS (total lipids):Aβ, Aβ1-42 25 μM): 85107 RFU
- % of control (Aβ42 [2]; 1 to 50 PINPS:Aβ, 48 hours): 44.0%
- RFU at 48 hours (Aβ42 [2]; 1 to 100 PINPS (total lipids):Aβ, Aβ1-42 25 μM): 132977 RFU
- % of control (Aβ42 [2]; 1 to 100 PINPS:Aβ, 48 hours): 68.8%
- RFU at 48 hours (Aβ42 [2]; 1 to 500 PINPS (total lipids):Aβ, Aβ1-42 25 μM): 165060 RFU
- % of control (Aβ42 [2]; 1 to 500 PINPS:Aβ, 48 hours): 85.5%
- RFU at 48 hours (Aβ42 [2]; 1 to 1000 PINPS (total lipids):Aβ, Aβ1-42 25 μM): 171555 RFU
- % of control (Aβ42 [2]; 1 to 1000 PINPS:Aβ, 48 hours): 88.8%
- RFU at 48 hours (Aβ42 [2]; 1 to 5000 PINPS (total lipids):Aβ, Aβ1-42 25 μM): 148012 RFU
- % of control (Aβ42 [2]; 1 to 5000 PINPS:Aβ, 48 hours): 76.6%
- RFU at 48 hours (Aβ42 [2]; 1 to 10000 PINPS (total lipids):Aβ, Aβ1-42 25 μM): 204059 RFU
- % of control (Aβ42 [2]; 1 to 10000 PINPS:Aβ, 48 hours): 105%
- RFU at 48 hours (Aβ42 [2]; 1 to 50000 PINPS (total lipids):Aβ, Aβ1-42 25 μM): 199514 RFU
- % of control (Aβ42 [2]; 1 to 50000 PINPS:Aβ, 48 hours): 103%
- RFU at 48 hours (Aβ42 [2]; 1 to 100000 PINPS (total lipids):Aβ, Aβ1-42 25 μM): 188616 RFU
- % of control (Aβ42 [2]; 1 to 100000 PINPS:Aβ, 48 hours): 97.0%
- inhibition of oligomer formation (Aβ42 [3]; 1:100 molar ratio of PINPS (total lipids):Aβ): still substantial
- immunoassay signal (time-resolved fluorescence, europium) (Aβ42 [3]; PINPs 1:1, 0 hours): 9494 relative fluorescence units
- immunoassay signal (time-resolved fluorescence, europium) (Aβ42 [3]; PINPs 1:1, 2 hours): 17524 relative fluorescence units
- immunoassay signal (time-resolved fluorescence, europium) (Aβ42 [3]; PINPs 1:1, 4 hours): 62958 relative fluorescence units
- immunoassay signal (time-resolved fluorescence, europium) (Aβ42 [3]; PINPs 1:1, 8 hours): 116308 relative fluorescence units
- immunoassay signal (time-resolved fluorescence, europium) (Aβ42 [3]; PINPs 1:1, 24 hours): 178685 relative fluorescence units
- immunoassay signal (time-resolved fluorescence, europium) (Aβ42 [3]; PINPs 1:1, 48 hours): 122098 relative fluorescence units
- immunoassay signal (time-resolved fluorescence, europium) (Aβ42 [3]; PINPs 1:10, 0 hours): 9666 relative fluorescence units
- immunoassay signal (time-resolved fluorescence, europium) (Aβ42 [3]; PINPs 1:10, 2 hours): 33960 relative fluorescence units
- immunoassay signal (time-resolved fluorescence, europium) (Aβ42 [3]; PINPs 1:10, 4 hours): 63899 relative fluorescence units
- immunoassay signal (time-resolved fluorescence, europium) (Aβ42 [3]; PINPs 1:10, 8 hours): 77883 relative fluorescence units
- immunoassay signal (time-resolved fluorescence, europium) (Aβ42 [3]; PINPs 1:10, 24 hours): 95760 relative fluorescence units
- immunoassay signal (time-resolved fluorescence, europium) (Aβ42 [3]; PINPs 1:10, 48 hours): 198806 relative fluorescence units
- immunoassay signal (time-resolved fluorescence, europium) (Aβ42 [3]; PINPs 1:50, 0 hours): 7833 relative fluorescence units
- immunoassay signal (time-resolved fluorescence, europium) (Aβ42 [3]; PINPs 1:50, 2 hours): 124190 relative fluorescence units
- immunoassay signal (time-resolved fluorescence, europium) (Aβ42 [3]; PINPs 1:50, 4 hours): 111776 relative fluorescence units
- immunoassay signal (time-resolved fluorescence, europium) (Aβ42 [3]; PINPs 1:50, 8 hours): 177380 relative fluorescence units
- immunoassay signal (time-resolved fluorescence, europium) (Aβ42 [3]; PINPs 1:50, 24 hours): 173198 relative fluorescence units
- immunoassay signal (time-resolved fluorescence, europium) (Aβ42 [3]; PINPs 1:50, 48 hours): 99592 relative fluorescence units
- immunoassay signal (time-resolved fluorescence, europium) (Aβ42 [3]; PINPs 1:100, 0 hours): 3766 relative fluorescence units
- immunoassay signal (time-resolved fluorescence, europium) (Aβ42 [3]; PINPs 1:100, 2 hours): 78306 relative fluorescence units
- immunoassay signal (time-resolved fluorescence, europium) (Aβ42 [3]; PINPs 1:100, 4 hours): 82278 relative fluorescence units
- immunoassay signal (time-resolved fluorescence, europium) (Aβ42 [3]; PINPs 1:100, 8 hours): 141932 relative fluorescence units
- immunoassay signal (time-resolved fluorescence, europium) (Aβ42 [3]; PINPs 1:100, 24 hours): 154889 relative fluorescence units
- immunoassay signal (time-resolved fluorescence, europium) (Aβ42 [3]; PINPs 1:100, 48 hours): 131004 relative fluorescence units
- Kd (Aβ42 fibrils): 0.014 to 0.044 µM
